For the assay, the target named is hCD40-P227A, gain-of-function polymorphism of the human CD40 receptor (human, UniProt P25942 21-277, P227A). The experiment in a line: co-IP.
Chain of hCD40-P227A, gain-of-function polymorphism of the human CD40 receptor (P25942 21-277 P227A): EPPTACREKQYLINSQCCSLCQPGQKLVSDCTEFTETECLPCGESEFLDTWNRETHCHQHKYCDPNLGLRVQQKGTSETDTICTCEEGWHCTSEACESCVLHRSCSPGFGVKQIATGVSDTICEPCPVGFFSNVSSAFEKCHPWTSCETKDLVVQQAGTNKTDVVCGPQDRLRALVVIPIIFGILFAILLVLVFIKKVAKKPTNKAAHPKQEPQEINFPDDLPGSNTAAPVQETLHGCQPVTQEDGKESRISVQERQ

B1: TNF receptor associated factor 3 (TRAF3) (natural protein, mouse (endogenous in CH12.LX), UniProt Q60803 1-567, looked up)
chain: MESSKKMDAAGTLQPNPPLKLQPDRGAGSVLVPEQGGYKEKFVKTVEDKYKCEKCRLVLCNPKQTECGHRFCESCMAALLSSSSPKCTACQESIIKDKVFKDNCCKREILALQVYCRNEGRGCAEQLTLGHLLVHLKNECQFEELPCLRADCKEKVLRKDLRDHVEKACKYREATCSHCKSQVPMIKLQKHEDTDCPCVVVSCPHKCSVQTLLRSELSAHLSECVNAPSTCSFKRYGCVFQGTNQQIKAHEASSAVQHVNLLKEWSNSLEKKVSLLQNESVEKNKSIQSLHNQICSFEIEIERQKEMLRNNESKILHLQRVIDSQAEKLKELDKEIRPFRQNWEEADSMKSSVESLQNRVTELESVDKSAGQAARNTGLLESQLSRHDQMLSVHDIRLADMDLRFQVLETASYNGVLIWKIRDYKRRKQEAVMGKTLSLYSQPFYTGYFGYKMCARVYLNGDGMGKGTHLSLFFVIMRGEYDALLPWPFKQKVTLMLMDQGSSRRHLGDAFKPDPNSSSFKKPTGEMNIASGCPVFVAQTVLENGTYIKDDTIFIKVIVDTSDLPDP
With B1, the “fold bound relative to Wt-hCD40” value stood at 2 fold.

B2: TNF receptor associated factor 5 (TRAF5) (natural protein, mouse (endogenous in CH12.LX), UniProt P70191 1-558, looked up)
chain: MAHSEEQAAVPCAFIRQNSGNSISLDFEPDTEYQFVEQLEERYKCAFCHSVLHNPHQTGCGHRFCQQCIRSLRELNSVPICPVDKEVIKPQEVFKDNCCKREVLNLHVYCKNAPGCNARIILGRFQDHLQHCSFQAVPCPNESCREAMLRKDVKEHLSAYCRFREEKCLYCKRDIVVTNLQDHEENSCPAYPVSCPNRCVQTIPRARVNEHLTVCPEAEQDCPFKHYGCTVKGKRGNLLEHERAALQDHMLLVLEKNYQLEQRISDLYQSLEQKESKIQQLAETVKKFEKELKQFTQMFGRNGTFLSNVQALTSHTDKSAWLEAQVRQLLQIVNQQPSRLDLRSLVDAVDSVKQRITQLEASDQRLVLLEGETSKHDAHINIHKAQLNKNEERFKQLEGACYSGKLIWKVTDYRVKKREAVEGHTVSVFSQPFYTSRCGYRLCARAYLNGDGSGKGTHLSLYFVVMRGEFDSLLQWPFRQRVTLMLLDQSGKKNHIVETFKADPNSSSFKRPDGEMNIASGCPRFVSHSTLENSKNTYIKDDTLFLKVAVDLTDLEDL
Regarding B2, the “fold bound relative to Wt-hCD40” value was 2 fold.

These data come from PMC3040440 (Journal of immunology (Baltimore, Md. : 1950), 2010).
